The text below walks through data of patent US20170137504A1 (TERACLON IDF S L, published 2017).

In assay [1] the target is T1, VEGF (4 ng/mL, added in the in vitro angiogenesis assay) (UniProt P15692-4 27-191, limits assumed). The assay is described as follows: cell-based or functional assay.
The target of assay [2] is T1, VEGF (4 ng/mL, added in the in vitro …). The assay is described as follows: cell-based or functional assay. This is another data set of the same source.

T1 sequence (P15692 other isoform, or with tags, fused parts or gaps limits assumed): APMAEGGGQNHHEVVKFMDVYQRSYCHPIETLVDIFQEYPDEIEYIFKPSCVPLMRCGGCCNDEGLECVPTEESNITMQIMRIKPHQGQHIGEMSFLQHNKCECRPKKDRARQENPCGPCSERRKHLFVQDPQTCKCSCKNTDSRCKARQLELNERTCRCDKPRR

B1: anti-VEGF vNAR V32R (VNAR, not shown: small tags and cut ends)
chain: AASLDQTPRTATRETGESLTINCVFTDSSCGLCGTSWFRNNPGSTDWERITIGGRYVESVNKGAKSFSLQIKDLTVEDSVTYYCKAQGHRYFSKVCELRCPSYYYDGAGTVLTVN
For B1, in assay [1], the “fold less antibody concentration than V13 for an inhibitory effect on angiogenesis” value is at most 12 times less. Also, in assay [2], the “IC50, average value (in vitro angiogenesis, HUVEC/NHDF co-culture)” value amounted to 23.4 mg/L; the “IC50, branching points (in vitro angiogenesis, HUVEC/NHDF co-culture)” value was determined as 19.3 mg/L; the “IC50, length of the tubes (in vitro angiogenesis, HUVEC/NHDF co-culture)” value was 27.6 mg/L.

B2: anti-VEGF vNAR V13 (other, not shown: small tags and cut ends)
chain: ASLDQTPRTATRETGESLSINCVLTDTSHILFGTKWLWNNPGSTDWESITIGGRYAESVNNQAKSFSLQIKDLTVEDSGTYYCKAQTIGRRKNLLPRPLVNGIAAMGYSSSDYDGAGTVLTVN
As for B2, in assay [2], the “IC50, average value (in vitro angiogenesis, HUVEC/NHDF co-culture)” value came to 388 mg/L; the “IC50, branching points (in vitro angiogenesis, HUVEC/NHDF co-culture)” value stood at 340 mg/L; the “IC50, length of the tubes (in vitro angiogenesis, HUVEC/NHDF co-culture)” value was 436 mg/L.

B3: anti-VEGF vNAR V19 (VNAR, not shown: small tags and cut ends)
VNAR: AQRVEQTPRTATKETGESLTINCVLRDASFELKDTGWYRTKLGSTNEQSISIGGRYVETVNKGSKSFSLRISDLRVEDSGTYKCQAFYSLPLGDYNYSLLFRGEKGAGTVLTVN
Consider B3, for which the “fold less antibody concentration than V13 for an inhibitory effect on angiogenesis” value in assay [1] was at most 12 times less. In assay [2], the “IC50, average value (in vitro angiogenesis, HUVEC/NHDF co-culture)” value came to 30.2 mg/L; the “IC50, branching points (in vitro angiogenesis, HUVEC/NHDF co-culture)” value stood at 24.7 mg/L; the “IC50, length of the tubes (in vitro angiogenesis, HUVEC/NHDF co-culture)” value is 35.8 mg/L.
